Biological target: SARS-CoV-2 S ectodomain trimer (SΔTM), wild type (SARS-CoV-2, UniProt P0DTC2)
Assay: SPR

B1: neutralizing monoclonal antibody 4A8 (NTD-directed), human IgG1 kappa (antibody, V domains shown)
VH: EVQLVESGAEVKKPGASVKVSCKVSGYTLTELSMHWVRQAPGKGLEWMGGFDPEDGETMYAQKFQGRVTMTEDTSTDTAYMELSSLRSEDTAVYYCATSTAVAGTPDLFDYYYGMDVWGQGTTVTVSS
VL: EIVMTQSPLSSPVTLGQPASISCRSSQSLVHSDGNTYLSWLQQRPGQPPRLLIYKISNRFSGVPDRFSGSGAGTDFTLKISRVEAEDVGVYYCTQATQFPYTFGQGTKVDIK
For B1, the Kd was 0.42 ± 0.07 nM.

From article PMC466946 (Science Advances, 2024)
